From patent publication US20220153854A1 (Ablynx, published 2022)
Changes are numbered by the printed parent chain.

Assays:
[1] = target: T1, membrane bound human OX40L on CHO-KI cells (human, UniProt P23510 1-183); assay: cell-based or functional assay
T1 sequence (looked up): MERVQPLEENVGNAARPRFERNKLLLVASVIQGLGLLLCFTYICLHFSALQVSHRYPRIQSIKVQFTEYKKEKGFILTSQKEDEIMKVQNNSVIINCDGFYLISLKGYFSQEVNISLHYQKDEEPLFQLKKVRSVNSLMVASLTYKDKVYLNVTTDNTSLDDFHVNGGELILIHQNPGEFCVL

[2] = target: T2, membrane bound cyno OX40L on CHO-KI cells (cynomolgus monkey, UniProt G7NVH7 1-183); assay: cell-based or functional assay
T2 sequence: T1 sequence (looked up) with R55Q, K73E

[3] = target: T3, cyno OX40L (cynomolgus monkey, UniProt G7NVH7 51-183); assay: SPR KD against parental F027300042 (15B07)
T3 construct: also called cyOX40L; cynomolgus monkey OX40L
T3 sequence: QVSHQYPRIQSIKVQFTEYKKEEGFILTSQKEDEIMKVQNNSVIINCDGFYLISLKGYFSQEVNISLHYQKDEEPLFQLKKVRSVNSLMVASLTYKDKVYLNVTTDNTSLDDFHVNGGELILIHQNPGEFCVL

[4] = target: T4, human OX40L (human, UniProt P23510 51-183); assay: SPR KD against parental F027300042 (15B07)
T4 construct: Protein in solution or immobilised (SPR, Gyrolab); construct not described; also called huOX40L; hOX40L
T4 sequence (looked up): T3 sequence with Q5R, E23K

[5] = target: T3, cyno OX40L; assay: SPR
[6] = target: T4, human OX40L; assay: SPR

- IC50 (nM) PBMC assay human OX40L [1]: 1.78 nM
- IC50 (nM) PBMC assay cyno OX40L [2]: 7.58 nM
- Fold improved affinity vs parental [3]: 92 fold
- Fold improved affinity vs parental [4]: 53 fold
- Kd [5]: 0.108 nM
- Kd [6]: 0.0853 nM
B1: F027301552 (15B07AM) (VHH)
VHH: DVQLVESGGGVVQPGGSLRLSCAASRSIGRYDRMGWYRHRPGEPRELVATITGGSSINYGDSVKGRFTISIDNSKNTVYLQMNSLRPEDTALYYCNFNKYQISRDTWGQGTLVTVSS
